{"source": "patent US10677782B2", "about": "“Methods of determining interferon having direct inhibitory effects on tumors and uses thereof” (SUPERLAB FAR EAST LIMITED, priority 2013, dated 2020)", "key": {"SW620 tumor cells": {"tested_on": "SW620 tumor cells", "test": "Cell viability over 1-6 days, MTT assay", "format": "cell-based, human", "details": "10 μg/ml", "procedure": "The cell survival rate was evaluated in a standard MTT assay (3-(4,5-dimethylthiazol-2-yl)-2,5-diphenyltetrazolium bromide assay, Sigma, St. Louis, Mo.). For the assay, about 20 μl MTT (at 4 mcg/ml) was added to each well. The cells were incubated at 37° C. for 4 hr. After that, the supernatant of each well was drawn off carefully and then an equal volume (150 microliter) of dimethyl sulfoxide (DMSO) was added to each well and mixed thoroughly on a shaker for 15 min. The absorbance from the plates was read at 595 nm with a Thermo Scientific Microplate Reader (Thermo Fisher Scientific Inc., Lowell, Mass.). The relative cell viability was calculated as follows: Cell viability=(Treated group(OD595) minus blank(OD595))/(Control group(OD595) minus blank(OD595))×100%."}, "[1]": {"tested_on": "Human Colon Cancer HT-29 Xenografts", "test": "Human colon cancer HT-29 xenografts in nude mice (Example 3)", "format": "in vivo", "details": "for TV (mm^3, mean ± SD) (D0): day 0, start of treatment; for TV (mm^3, mean ± SD) (D28): day 28", "method": "Before commencement of this study, the xenografts were passaged twice in nude mice. Under sterile conditions, well-grown tumors were cut into 1.5 mm^3 fragments and one such fragment was injected by trocar needle into the right flank of each study animal. […] Individual tumor size (length and width) was measured twice per week with microcalipers. Tumor volume (V) was calculated using the formula: V=(length×width^2)/2. Individual relative tumor volume (RTV) was calculated using the formula: RTV=Vt/V0, where Vt is the tumor volume on the day of measurement and V0 is the tumor volume on the day of first treatment. Therapeutic effect of the test article or control article was expressed in terms of TIC (%), using the formula: TIC (%) (mean RTV of the treated group/mean RTV of the control group)×100%; and in terms of % Inhibition, using the formula: % Inhibition=100%−T/C %.\nThen, 1.5 mm^3 fragments were prepared for s.c. implantation into the test animals."}, "A549 tumor cells": {"tested_on": "A549 tumor cells", "test": "Cell viability over 1-6 days, MTT assay", "format": "cell-based, human", "details": "10 μg/ml", "method": "The cell survival rate was evaluated in a standard MTT assay (3-(4,5-dimethylthiazol-2-yl)-2,5-diphenyltetrazolium bromide assay, Sigma, St. Louis, Mo.). For the assay, about 20 μl MTT (at […]) was added to each well. The cells were incubated at 37° C. for 4 hr. After that, the supernatant of each well was drawn off carefully and then an equal volume (150 microliter) of dimethyl sulfoxide (DMSO) was added to each well and mixed thoroughly on a shaker for 15 min. The absorbance from the plates was read at 595 nm with a Thermo Scientific Microplate Reader (Thermo Fisher Scientific Inc., Lowell, Mass.). The relative cell viability was calculated as follows: Cell viability=(Treated group(OD595) minus blank(OD595))/(Control group(OD595) minus blank(OD595))×100%."}, "LRP6 mRNA in H460 cells": {"tested_on": "LRP6 mRNA in H460 cells", "test": "qPCR of Wnt-related receptor LRP6", "format": "cell-based, human", "details": "10 μg/ml, 24 hr; vs Mock", "excerpt": "Total mRNA was isolated using TRIZOL Reagent (Invitrogen, Carlsbad, Calif.) according to the manufacturer's instructions. Complementary DNA (cDNA) was synthesized using a RT-PCR Kit (Cat #: FSQ-101, TOYOBO, Japan) according to the manufacturer's instructions and then subjected to qPCR with a SYBR Green PCR kit (Cat #: QPK-201, TOYOBO, Japan). The primers of the four Wnt pathway target genes were as follows: Axin2 sense primer: 5′-[…]-3′ (SEQ ID NO:8) and antisense primer: 5′-[…]-3′ (SEQ ID NO: 9); CD24 sense primer: 5′-[…]-3′ (SEQ ID NO: 10) andantisense primer: 5′-[…]-3′ (SEQ ID NO: 11); Survivin sense primer: 5′-[…]-3′ (SEQ ID NO: 12) and antisense primer: 5′-[…]-3′ (SEQ ID NO: 13) and ID2 sense primer: 5′-[…]-3′ (SEQ ID NO: 14) and antisense primer: 5′-[…]-3′ (SEQ ID NO: 15).\nThe amplification protocol consisted of incubations at 95° C. for 1 minute, 40 cycles (95° C. for 15 seconds, 60° C. for 15 seconds, 72° C. for 30 seconds). Incorporation of the SYBR Green dye into PCR products was monitored in real time with a Bio-Rad Detection System and subsequently analyzed using Bio-Rad CFX manager 2.1 software. The samples were pooled for each condition and run in duplicate. […]\nThe regulation of LRP6/FZD6 by rSIFN-co was investigated. […] Results were recorded as relative mRNA level of either LRP6 or FZD6 relative to GAPDH."}, "[2]": {"test": "Tolerability and body weight of tumor-bearing mice, Example 3", "format": "in vivo", "details": "0.05-0.15 mg/mouse i.t. every other day, 28 days", "method": "(§1) Animals were assigned to treatment groups randomly. Initially, all animals were placed in one large animal cage. For assignment to the study, they were later separately housed, with 6 animals per cage per treatment group. Groups 1 and 2 are Control groups in which the animals were each administered the vehicle every other day after the first treatment. […] The animals in Groups 4, 5 and 6 were each given rSIFN-co every other day after the first treatment at 0.15 mg/mouse (Group 4) or 0.10 mg/mouse (Group 5) or 0.05 mg/mouse (Group 6), respectively. Tumor growth was monitored by measuring the length and width of each tumor twice a week during the course of the study. Each animal was also weighed twice a week during the course of the study.\nThis study was conducted as in Example 1, except as specifically indicated otherwise. Human colon cancer xenografts were first established and prepared in a similar manner as in Example 1, by inoculating 5×10^6 HT-29 cells subcutaneously into nude mice and passaging the well-grown xenografts twice in nude mice. Then, 1.5 mm^3 fragments were prepared for s.c. implantation into the test animals. The body weight of the animals averaged 20±2 g at dose initiation In contrast to Example 1, the animals used in this study were all female. […]"}, "[3]": {"test": "Tolerability and body weight of tumor-bearing mice, Example 4", "format": "in vivo, BALB/cA nu/nu mice", "details": "0.05 mg/mouse i.t. every other day; day 17; reasons unknown", "method": "as §1\nThe study was conducted as in Example 3, except as specifically indicated otherwise. Human xenografts for injection into the test animals were first established and prepared in a similar manner as in Example 1, but by inoculating 2.5×10^6 SPC-A4 cells subcutaneously (s.c.) in nude mice and passaging the well-grown tumors twice in nude mice. The 1.5 mm^3 fragments were then used for s.c. implantation into the test animals. The body weight of the animals averaged 22±2 g at dose initiation. In contrast to Example 3, the animals used in this study were all male and the study was conducted over a 21 day treatment period."}, "[4]": {"details": "0.05 mg/mouse i.t. every other day"}, "[5]": {"details": "0.10 mg/mouse i.t. every other day"}, "[6]": {"details": "0.15 mg/mouse i.t. every other day"}}}
{"molecule": "rSIFN-co: Recombinant super-compound interferon; amino acid sequence SEQ ID NO: 1 (same as interferon alfacon-1), encoded by SEQ ID NO: 2, novel tertiary structure (protein, Amino acid sequence of recombinant interferon) MCDLPQTHSLGNRRALILLAQMRRISPFSCLKDRHDFGFPQEEFDGNQFQKAQAISVLHEMIQQTFNLFSTKDSSAAWDESLLEKFYTELYQQLNDLEACVIQEVGVEETPLMNVDSILAVKKYFQRITLYLTEKKYSPCAWEVVRAEIMRSFSLSTNLQERLRRKE", "values": [{"measurement": "cell viability, time dependent effect", "setting": "SW620 tumor cells", "result": "strongly decreased cell viability of SW620 cells in a time-dependent manner"}, {"measurement": "TV (mm^3, mean ± SD) (D0)", "setting": "[1]; [4]", "result": "130 ± 26", "unit": "mm^3"}, {"measurement": "TV (mm^3, mean ± SD) (D28)", "setting": "[1]; [4]", "result": "416 ± 166", "unit": "mm^3"}, {"measurement": "TV (mm^3, mean ± SD) (D0)", "setting": "[1]; [5]", "result": "128 ± 39", "unit": "mm^3"}, {"measurement": "TV (mm^3, mean ± SD) (D28)", "setting": "[1]; [5]", "result": "541 ± 196", "unit": "mm^3"}, {"measurement": "TV (mm^3, mean ± SD) (D0)", "setting": "[1]; [6]", "result": "131 ± 36", "unit": "mm^3"}, {"measurement": "TV (mm^3, mean ± SD) (D28)", "setting": "[1]; [6]", "result": "570 ± 144", "unit": "mm^3"}, {"measurement": "cell viability, time dependent effect", "setting": "A549 tumor cells", "result": "apparent for A549 cells for only about the first 3 days of treatment"}, {"measurement": "relative expression of the LRP6 mRNA", "setting": "LRP6 mRNA in H460 cells", "result": "down-regulated to various extents"}, {"measurement": "tolerability: signs of drug toxicity and changes in weight", "setting": "[2]", "result": "no signs of drug toxicity and minimal changes in weight"}, {"measurement": "deaths", "setting": "[3]", "result": "one mouse"}]}
